# Test results from PMC4967042.
# B1: forked duplex T44/FLAP26 (dsDNA)
# DNA 1: GCACTGGCCGTCGTTTTACGGTCGTGACTGGGAAAACCCTGGCG
# DNA 2: TTTTTTTTTTTTTTTTTTTTTTCCAAGTAAAACGACGGCCAGTGC
# Legend:
# Assay in all cases: MST
# RECQ1-C478A = RECQ1-C478A (human, UniProt P46063 1-649, C478A)
# RECQ1-C475A = RECQ1-C475A (human, UniProt P46063 1-649, C475A)
# RECQ1-C453A = RECQ1-C453A (human, UniProt P46063 1-649, C453A)
# Chain of RECQ1-C453A (P46063 whole entry C453A): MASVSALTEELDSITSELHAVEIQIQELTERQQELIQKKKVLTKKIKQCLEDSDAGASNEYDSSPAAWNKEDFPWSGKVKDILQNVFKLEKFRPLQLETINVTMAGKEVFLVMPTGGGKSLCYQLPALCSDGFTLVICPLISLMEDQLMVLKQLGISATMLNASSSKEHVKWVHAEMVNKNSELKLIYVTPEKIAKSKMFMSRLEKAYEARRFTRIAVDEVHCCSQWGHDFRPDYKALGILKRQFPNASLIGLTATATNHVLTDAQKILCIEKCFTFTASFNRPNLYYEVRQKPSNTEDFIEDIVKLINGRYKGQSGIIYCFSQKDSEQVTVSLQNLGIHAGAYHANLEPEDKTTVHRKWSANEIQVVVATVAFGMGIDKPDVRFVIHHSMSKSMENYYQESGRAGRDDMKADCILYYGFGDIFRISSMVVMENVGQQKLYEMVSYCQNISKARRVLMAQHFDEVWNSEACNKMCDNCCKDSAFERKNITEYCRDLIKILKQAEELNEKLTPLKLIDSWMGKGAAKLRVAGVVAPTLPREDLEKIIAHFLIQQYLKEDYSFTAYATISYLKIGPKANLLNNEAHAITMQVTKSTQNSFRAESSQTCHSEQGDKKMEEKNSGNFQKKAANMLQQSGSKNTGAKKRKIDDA
# Chain of RECQ1-C478A (P46063 whole entry C478A): as the sequence (P46063 whole entry C453A) above, with A453C, C478A counted along it
# Chain of RECQ1-C475A (P46063 whole entry C475A): as the sequence (P46063 whole entry C453A) above, with A453C, C475A counted along it
binder,measurement,setting,value
B1,Kd,RECQ1-C478A,602 nM
same,Kd,RECQ1-C475A,473 nM
same,Kd,RECQ1-C453A,276 nM
